# Data reported in US12630600B2 (MEDIMMUNE LIMITED, priority 2022, dated 2026).
# Starred links: 1 amine or outer side, 2 acyl side, 3 side chain; linkers in the order of their positions; H or OH if unused. Non-standard residues stand in square brackets, D forms with d. Groups on a side chain read outwards from the residue. Primed or numbered codes have the meaning given here. No end group written: not given here. *: point of attachment. C20 diacid = O=C(O)CCCCCCCCCCCCCCCCCCC(=O)*; C18 diacid = O=C(O)CCCCCCCCCCCCCCCCC(=O)*; γGlu = O=C(O)[C@H](CCC(=O)[*:2])N[*:1]; Stearoyl = CCCCCCCCCCCCCCCCCC(=O)*; Palmitoyl = CCCCCCCCCCCCCCCC(=O)*; αMeF = C[C@](N)(Cc1ccccc1)C(=O)O; Myristoyl = CCCCCCCCCCCCCC(=O)*; (PEG)2 = polyethylene glycol 2; PEG2′ = polyethylene glycol 2; αMeS = C[C@](N)(CO)C(=O)O; AEEA = NCCOCCOCC(=O)O; Aib = CC(C)(N)C(=O)O
# B1: Peptide 13 (peptide)
# peptide: H[Aib]HGS[αMeF]TSDVSK[αMeF]LDSK([AEEA-AEEA-γGlu-C18 diacid])AARD[αMeF]VQ[Aib]IANT-NH2
# modifications: N-terminus assumed
# SMILES: CC[C@H](C)[C@H](NC(=O)C(C)(C)NC(=O)[C@H](CCC(N)=O)NC(=O)[C@@H](NC(=O)[C@](C)(Cc1ccccc1)NC(=O)[C@H](CC(=O)O)NC(=O)[C@H](CCCNC(=N)N)NC(=O)[C@H](C)NC(=O)[C@H](C)NC(=O)[C@H](CCCCNC(=O)COCCOCCNC(=O)COCCOCCNC(=O)CC[C@H](NC(=O)CCCCCCCCCCCCCCCCC(=O)O)C(=O)O)NC(=O)[C@H](CO)NC(=O)[C@H](CC(=O)O)NC(=O)[C@H](CC(C)C)NC(=O)[C@](C)(Cc1ccccc1)NC(=O)[C@H](CCCCN)NC(=O)[C@H](CO)NC(=O)[C@@H](NC(=O)[C@H](CC(=O)O)NC(=O)[C@H](CO)NC(=O)[C@@H](NC(=O)[C@](C)(Cc1ccccc1)NC(=O)[C@H](CO)NC(=O)CNC(=O)[C@H](Cc1c[nH]cn1)NC(=O)C(C)(C)NC(=O)[C@@H](N)Cc1c[nH]cn1)[C@@H](C)O)C(C)C)C(C)C)C(=O)N[C@@H](C)C(=O)N[C@@H](CC(N)=O)C(=O)N[C@H](C(N)=O)[C@@H](C)O
# B2: Peptide 12 (peptide)
# peptide: H[Aib]HGS[αMeF]TSDVSK[αMeF]LDSK([AEEA-AEEA-γGlu-C18 diacid])AARDFVQ[Aib]IANT-NH2
# modifications: N-terminus assumed
# SMILES: CC[C@H](C)[C@H](NC(=O)C(C)(C)NC(=O)[C@H](CCC(N)=O)NC(=O)[C@@H](NC(=O)[C@H](Cc1ccccc1)NC(=O)[C@H](CC(=O)O)NC(=O)[C@H](CCCNC(=N)N)NC(=O)[C@H](C)NC(=O)[C@H](C)NC(=O)[C@H](CCCCNC(=O)COCCOCCNC(=O)COCCOCCNC(=O)CC[C@H](NC(=O)CCCCCCCCCCCCCCCCC(=O)O)C(=O)O)NC(=O)[C@H](CO)NC(=O)[C@H](CC(=O)O)NC(=O)[C@H](CC(C)C)NC(=O)[C@](C)(Cc1ccccc1)NC(=O)[C@H](CCCCN)NC(=O)[C@H](CO)NC(=O)[C@@H](NC(=O)[C@H](CC(=O)O)NC(=O)[C@H](CO)NC(=O)[C@@H](NC(=O)[C@](C)(Cc1ccccc1)NC(=O)[C@H](CO)NC(=O)CNC(=O)[C@H](Cc1c[nH]cn1)NC(=O)C(C)(C)NC(=O)[C@@H](N)Cc1c[nH]cn1)[C@@H](C)O)C(C)C)C(C)C)C(=O)N[C@@H](C)C(=O)N[C@@H](CC(N)=O)C(=O)N[C@H](C(N)=O)[C@@H](C)O
# B3: Peptide 14 (peptide)
# peptide: H[Aib]HGS[αMeF]TSDVSK[αMeF]LDSK([AEEA-AEEA-γGlu-γGlu-C20 diacid])AARD[αMeF]VQ[Aib]IANT-NH2
# modifications: N-terminus assumed
# SMILES: CC[C@H](C)[C@H](NC(=O)C(C)(C)NC(=O)[C@H](CCC(N)=O)NC(=O)[C@@H](NC(=O)[C@](C)(Cc1ccccc1)NC(=O)[C@H](CC(=O)O)NC(=O)[C@H](CCCNC(=N)N)NC(=O)[C@H](C)NC(=O)[C@H](C)NC(=O)[C@H](CCCCNC(=O)COCCOCCNC(=O)COCCOCCNC(=O)CC[C@H](NC(=O)CC[C@H](NC(=O)CCCCCCCCCCCCCCCCCCC(=O)O)C(=O)O)C(=O)O)NC(=O)[C@H](CO)NC(=O)[C@H](CC(=O)O)NC(=O)[C@H](CC(C)C)NC(=O)[C@](C)(Cc1ccccc1)NC(=O)[C@H](CCCCN)NC(=O)[C@H](CO)NC(=O)[C@@H](NC(=O)[C@H](CC(=O)O)NC(=O)[C@H](CO)NC(=O)[C@@H](NC(=O)[C@](C)(Cc1ccccc1)NC(=O)[C@H](CO)NC(=O)CNC(=O)[C@H](Cc1c[nH]cn1)NC(=O)C(C)(C)NC(=O)[C@@H](N)Cc1c[nH]cn1)[C@@H](C)O)C(C)C)C(C)C)C(=O)N[C@@H](C)C(=O)N[C@@H](CC(N)=O)C(=O)N[C@H](C(N)=O)[C@@H](C)O
# B4: Peptide 109 (peptide)
# peptide: HSQGS[αMeF]TSDVSK(Ac)[Aib]LDSK([AEEA-AEEA-γGlu-C18 diacid])AAQD[αMeF]VQ[Aib]IAN-NH2
# modifications: N-terminus assumed
# SMILES: CC[C@H](C)[C@H](NC(=O)C(C)(C)NC(=O)[C@H](CCC(N)=O)NC(=O)[C@@H](NC(=O)[C@](C)(Cc1ccccc1)NC(=O)[C@H](CC(=O)O)NC(=O)[C@H](CCC(N)=O)NC(=O)[C@H](C)NC(=O)[C@H](C)NC(=O)[C@H](CCCCNC(=O)COCCOCCNC(=O)COCCOCCNC(=O)CC[C@H](NC(=O)CCCCCCCCCCCCCCCCC(=O)O)C(=O)O)NC(=O)[C@H](CO)NC(=O)[C@H](CC(=O)O)NC(=O)[C@H](CC(C)C)NC(=O)C(C)(C)NC(=O)[C@H](CCCCNC(C)=O)NC(=O)[C@H](CO)NC(=O)[C@@H](NC(=O)[C@H](CC(=O)O)NC(=O)[C@H](CO)NC(=O)[C@@H](NC(=O)[C@](C)(Cc1ccccc1)NC(=O)[C@H](CO)NC(=O)CNC(=O)[C@H](CCC(N)=O)NC(=O)[C@H](CO)NC(=O)[C@@H](N)Cc1c[nH]cn1)[C@@H](C)O)C(C)C)C(C)C)C(=O)N[C@@H](C)C(=O)N[C@@H](CC(N)=O)C(N)=O
# Biological target: human GLP-1 receptor (human, UniProt P43220)
# Assay: cell-based or functional assay
row,Binder,"cAMP production, hGLP-1R EC50 (pM)"
1,H[Aib]QGS[αMeF]TSDVSKILDSK([(PEG)2-(PEG)2-γGlu-Stearoyl])AAQD[αMeF]VQ[Aib]IINT-NH2 [Peptide 127],0.998
2,HSQGS[αMeF]TSDVSKILDSK([(PEG)2-(PEG)2-γGlu-Stearoyl])AAQD[αMeF]VQ[Aib]IINT-NH2 [Peptide 120],1.81
3,HSQGS[αMeF]TSDVSK(Ac)[Aib]LDSK([(PEG)2-(PEG)2-γGlu-γGlu-Stearoyl])AAQD[αMeF]VQ[Aib]IAN-NH2 [Peptide 110],0.627
4,HSQGS[αMeF]TSDVSKILDSK([(PEG)2-(PEG)2-γGlu-Palmitoyl])AAQD[αMeF]VQ[Aib]IINT-NH2 [Peptide 121],1.5
5,H[Aib]QGS[αMeF]TSDVSKILDSK([(PEG)2-(PEG)2-γGlu-Myristoyl])AAQD[αMeF]VQ[Aib]IINT-NH2 [Peptide 129],0.462
6,H[αMeS]QGS[αMeF]TSDVSKILDSK([PEG2′-PEG2′-γGlu-γGlu-Palmitoyl])AAQD[αMeF]VQ[Aib]IINT-NH2 [Peptide 131],0.511
7,HSQGS[αMeF]TSDVSKILDSKAAQD[αMeF]VQ[Aib]IAN-NH2 (not fully specified (residue 17)) [Peptide 111],1.92
8,B1,15.9
9,HSQGS[αMeF]TSDVSKILDSK([(PEG)2-(PEG)2-γGlu-Myristoyl])AAQD[αMeF]VQ[Aib]IINT-NH2 [Peptide 122],1.42
10,B2,14.5
11,B3,93.8
12,H[Aib]QGS[αMeF]TSDVSKILDSK([(PEG)2-(PEG)2-γGlu-Palmitoyl])AAQD[αMeF]VQ[Aib]IINT-NH2 [Peptide 128],0.788
13,B4,698
14,HSQGS[αMeF]TSDVSKILDSK([(PEG)2-(PEG)2-γGlu-γGlu-Palmitoyl])AAQD[αMeF]VQ[Aib]IINT-NH2 [Peptide 118],1.07
15,H[αMeS]QGS[αMeF]TSDVSKILDSK([PEG2′-PEG2′-γGlu-γGlu-Myristoyl])AAQD[αMeF]VQ[Aib]IINT-NH2 [Peptide 132],0.949
16,HSQGS[αMeF]TSDVSKILDSK([(PEG)2-(PEG)2-γGlu-γGlu-Myristoyl])AAQD[αMeF]VQ[Aib]IINT-NH2 [Peptide 119],1.39
17,H[Aib]QGS[αMeF]TSDVSKILDSK([(PEG)2-(PEG)2-γGlu-γGlu-Palmitoyl])AAQD[αMeF]VQ[Aib]IINT-NH2 [Peptide 125],0.575

# Biological target: human glucagon receptor (human, UniProt P47871)
# Assay: cell-based or functional assay
row,Binder,"cAMP production, hGluc-R EC50 (pM)"
1,H[Aib]QGS[αMeF]TSDVSKILDSK([(PEG)2-(PEG)2-γGlu-Stearoyl])AAQD[αMeF]VQ[Aib]IINT-NH2 [Peptide 127],12.6
2,HSQGS[αMeF]TSDVSKILDSK([(PEG)2-(PEG)2-γGlu-Stearoyl])AAQD[αMeF]VQ[Aib]IINT-NH2 [Peptide 120],2.62
3,HSQGS[αMeF]TSDVSK(Ac)[Aib]LDSK([(PEG)2-(PEG)2-γGlu-γGlu-Stearoyl])AAQD[αMeF]VQ[Aib]IAN-NH2 [Peptide 110],48.5
4,HSQGS[αMeF]TSDVSKILDSK([(PEG)2-(PEG)2-γGlu-Palmitoyl])AAQD[αMeF]VQ[Aib]IINT-NH2 [Peptide 121],1.2
5,H[Aib]QGS[αMeF]TSDVSKILDSK([(PEG)2-(PEG)2-γGlu-Myristoyl])AAQD[αMeF]VQ[Aib]IINT-NH2 [Peptide 129],4.1
6,H[αMeS]QGS[αMeF]TSDVSKILDSK([PEG2′-PEG2′-γGlu-γGlu-Palmitoyl])AAQD[αMeF]VQ[Aib]IINT-NH2 [Peptide 131],17.8
7,HSQGS[αMeF]TSDVSKILDSKAAQD[αMeF]VQ[Aib]IAN-NH2 (not fully specified (residue 17)) [Peptide 111],2.09
8,B1,44
9,HSQGS[αMeF]TSDVSKILDSK([(PEG)2-(PEG)2-γGlu-Myristoyl])AAQD[αMeF]VQ[Aib]IINT-NH2 [Peptide 122],0.857
10,B2,47.7
11,B3,462
12,H[Aib]QGS[αMeF]TSDVSKILDSK([(PEG)2-(PEG)2-γGlu-Palmitoyl])AAQD[αMeF]VQ[Aib]IINT-NH2 [Peptide 128],4.7
13,B4,> 26800
14,HSQGS[αMeF]TSDVSKILDSK([(PEG)2-(PEG)2-γGlu-γGlu-Palmitoyl])AAQD[αMeF]VQ[Aib]IINT-NH2 [Peptide 118],1.2
15,H[αMeS]QGS[αMeF]TSDVSKILDSK([PEG2′-PEG2′-γGlu-γGlu-Myristoyl])AAQD[αMeF]VQ[Aib]IINT-NH2 [Peptide 132],34.3
16,HSQGS[αMeF]TSDVSKILDSK([(PEG)2-(PEG)2-γGlu-γGlu-Myristoyl])AAQD[αMeF]VQ[Aib]IINT-NH2 [Peptide 119],1.7
17,H[Aib]QGS[αMeF]TSDVSKILDSK([(PEG)2-(PEG)2-γGlu-γGlu-Palmitoyl])AAQD[αMeF]VQ[Aib]IINT-NH2 [Peptide 125],6.68
